US20250376519A1 (JIANGSU HENGRUI PHARMACEUTICALS, published 2025)

T1: human DLL3 on cells (human, UniProt Q9NYJ7 27-618)
T1 construct: Endogenous on H1184 and SHP77; Cell line is named under assay; also called H1184; DLL3/H82
T1 sequence: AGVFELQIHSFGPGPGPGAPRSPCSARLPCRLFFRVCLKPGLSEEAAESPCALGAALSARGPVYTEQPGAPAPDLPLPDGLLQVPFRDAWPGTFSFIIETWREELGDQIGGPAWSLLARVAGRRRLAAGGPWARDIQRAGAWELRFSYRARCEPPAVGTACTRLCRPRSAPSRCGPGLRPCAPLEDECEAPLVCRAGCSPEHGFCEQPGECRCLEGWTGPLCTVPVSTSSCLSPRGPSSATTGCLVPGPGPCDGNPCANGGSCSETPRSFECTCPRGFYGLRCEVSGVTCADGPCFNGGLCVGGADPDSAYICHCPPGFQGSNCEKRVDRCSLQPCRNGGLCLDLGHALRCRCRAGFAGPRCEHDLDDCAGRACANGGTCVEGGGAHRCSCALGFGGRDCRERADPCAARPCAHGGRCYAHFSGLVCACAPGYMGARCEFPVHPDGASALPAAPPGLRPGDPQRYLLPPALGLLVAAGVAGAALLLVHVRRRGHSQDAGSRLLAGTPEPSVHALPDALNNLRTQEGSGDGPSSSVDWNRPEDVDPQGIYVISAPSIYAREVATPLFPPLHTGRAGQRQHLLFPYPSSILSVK

T2: human DLL3 (ACRO, DLL3-H52H4) (human, UniProt Q9NYJ7 27-492)
T2 construct: Bought
T2 sequence: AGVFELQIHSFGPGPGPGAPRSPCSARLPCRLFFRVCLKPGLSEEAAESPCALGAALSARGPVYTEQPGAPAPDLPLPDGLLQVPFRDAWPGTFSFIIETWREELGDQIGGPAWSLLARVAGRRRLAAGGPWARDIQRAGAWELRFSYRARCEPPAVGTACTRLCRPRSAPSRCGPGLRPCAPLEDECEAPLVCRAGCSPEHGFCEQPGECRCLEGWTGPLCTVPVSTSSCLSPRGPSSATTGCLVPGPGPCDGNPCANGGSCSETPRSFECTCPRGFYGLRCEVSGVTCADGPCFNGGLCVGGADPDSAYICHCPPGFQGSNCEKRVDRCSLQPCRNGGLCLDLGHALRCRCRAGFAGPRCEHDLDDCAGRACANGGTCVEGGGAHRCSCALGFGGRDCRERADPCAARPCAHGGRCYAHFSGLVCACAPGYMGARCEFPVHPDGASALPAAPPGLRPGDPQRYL


Columns and labels:
human DLL3 on cells = target: T1, human DLL3 on cells; test: flow cytometry, DLL3/H82 cells
Protocol: The plates were centrifuged at 300 g for 5 min, and the supernatant was removed. Different concentrations of test antibodies were added at 100 μL/well. The plates were incubated in the dark in a refrigerator at 4° C. for 1 h. After 3 centrifugal washes at 300 g, working concentrations of APC anti-human IgG Fc (BioLegend, 410712) or PE F(ab′)2-goat anti-human IgG (invitrogen, H10104) were added. The plates were incubated in the dark in a refrigerator at 4° C. for 40 min. After 3 centrifugal washes at 300 g, the geometric mean fluorescence intensity was measured on an Invitrogen flow cytometer, and the EC50 values for the binding of the antibodies to DLL3-expressing cells were calculated.

[1] = target: T2, human DLL3 (ACRO, DLL3-H52H4); test: SPR Biacore 8K, Ab captured on Protein A
Outline: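 Antibodies captured on a Protein A chip for 18 s; DLL3 or CD3D&3E antigen flowed 180 s, then 600 s dissociation, with real-time detection. Regeneration used 10 mM glycine-HCl pH 1.5 between cycles. Kinetics were obtained by 1:1 model fitting.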

hPDL1 = target: T3, hPDL1 (human, UniProt Q9NZQ7 19-239); test: ELISA
T3 construct: bought
T3 sequence (Q9NZQ7 19-239 limits assumed): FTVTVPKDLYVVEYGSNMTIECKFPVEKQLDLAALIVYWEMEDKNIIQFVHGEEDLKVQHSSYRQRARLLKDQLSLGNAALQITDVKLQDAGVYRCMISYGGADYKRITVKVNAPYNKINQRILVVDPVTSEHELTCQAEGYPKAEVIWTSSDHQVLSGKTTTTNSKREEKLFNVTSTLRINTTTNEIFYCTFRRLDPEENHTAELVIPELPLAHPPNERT

hCTLA4 = target: T4, hCTLA4 (human, UniProt P16410 36-162, limits assumed); test: ELISA
T4 construct: bought
T4 sequence (P16410 36-162 limits assumed): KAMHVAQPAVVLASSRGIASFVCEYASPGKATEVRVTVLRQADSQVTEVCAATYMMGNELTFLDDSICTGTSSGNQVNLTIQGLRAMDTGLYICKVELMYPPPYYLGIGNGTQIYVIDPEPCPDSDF

Binder	EC50 (human DLL3 on cells)	Emax (human DLL3 on cells)	Kd [1]	koff [1]	kon [1]	EC50 (hPDL1)	EC50 (hCTLA4)
hu110L2H4 (antibody, human IgG1, kappa, V domains shown) VH: EVQLVQSGAEVKKPGASVKVSCKTSGYTFTDYYMNWVRQAPGQSLEWMGIINPYSGGTSYTQKFKGRVTITVDKSASTAYMELSSLRSEDTAVYYCARHFYDSSYLTYSTMDYWGQGTTVTVSS VL: NIVMTQSPKSLAVSLGERATINCKASENVGIFVSWYQQKPGQSPKLLIYGASNRYTGVPDRFSGSGSATDFTLTISSLQAEDVADYYCGQSHSYPLTFGQGTKLEIKR	1.41 nM	4600	0.103 nM	5.11e-05 s⁻¹	496000 M⁻¹ s⁻¹		
hu110L2H5 (antibody, human IgG1, kappa, V domains shown) VH: EVQLVQSGAEVKKPGASVKVSCKTSGYTFTDYYMNWVRQAPGQSLEWMGIINPYTGGTSYTQKFKGRVTITVDKSASTAYMELSSLRSEDTAVYYCARHFYDSSYLTYSTMDYWGQGTTVTVSS VL: NIVMTQSPKSLAVSLGERATINCKASENVGIFVSWYQQKPGQSPKLLIYGASNRYTGVPDRFSGSGSATDFTLTISSLQAEDVADYYCGQSHSYPLTFGQGTKLEIKR	1.71 nM	4670	0.206 nM	8.96e-05 s⁻¹	434000 M⁻¹ s⁻¹		
hu110L2H6 (antibody, human IgG1, kappa, V domains shown) VH: EVQLVQSGAEVKKPGASVKVSCKTSGYTFTDYYMNWVRQAPGQSLEWMGIINPYNVGTSYTQKFKGRVTITVDKSASTAYMELSSLRSEDTAVYYCARHFYDSSYLTYSTMDYWGQGTTVTVSS VL: NIVMTQSPKSLAVSLGERATINCKASENVGIFVSWYQQKPGQSPKLLIYGASNRYTGVPDRFSGSGSATDFTLTISSLQAEDVADYYCGQSHSYPLTFGQGTKLEIKR	1.4 nM	5190	0.167 nM	6.86e-05 s⁻¹	411000 M⁻¹ s⁻¹		
PL-1 (bispecific antibody) chain 1: not shown chain 2: DIVLTQSPASLAVSPGQRATITCRASESVSIHGTHLMHWYQQKPGQPPKLLIYAASKLESGVPARFSGSGSGTDFTLTINPVEAEDTANYYCQQSFEDPLTFGQGTKLEIKGGGGSGIPPKIECLPIDISIDEGKVLTVASAFTGEPTPEVTWSTGGRKIHSQEQGRFHIENTDDLTTLIIKDVQKQDGGLYTLTLRNEFGSDSATVNIHIRSI chain 3: not shown chain 4: not shown						1.6 nM	16.5 nM
PL-11 (bispecific antibody) chain 1: not shown chain 2: DIVLTQSPASLAVSPGQRATITCRASESVSIHGTHLMHWYQQKPGQPPKLLIYAASKLESGVPARFSGSGSGTDFTLTINPVEAEDTANYYCQQSFEDPLTFGQGTKLEIKRTVASGIPPKIECLPIDISIDEGKVLTVASAFTGEPTPEVTWSTGGRKIHSQEQGRFHIENTDDSTTLTIKDVQKQDGGLYTLTLRNEFGSDSATVNIHIRSI chain 3: not shown chain 4: not shown						0.6 nM	5.6 nM
PL-12 (bispecific antibody) chain 1: not shown chain 2: DIVLTQSPASLAVSPGQRATITCRASESVSIHGTHLMHWYQQKPGQPPKLLIYAASKLESGVPARFSGSGSGTDFTLTINPVEAEDTANYYCQQSFEDPLTFGQGTKLEIKRTVASGIPPKIECLPIDISIDEGKCLTVASAFTGEPTPEVTWSTGGRKIHSQEQGRFHIENTDDSTTLTIKDVQKQDGGLYTLTLRNEFGSDSATVNIHIRSI chain 3: not shown chain 4: not shown						0.5 nM	8 nM
PL-6 (bispecific antibody) chain 1: not shown chain 2: DIVLTQSPASLAVSPGQRATITCRASESVSIHGTHLMHWYQQKPGQPPKLLIYAASKLESGVPARFSGSGSGTDFTLTINPVEAEDTANYYCQQSFEDPLTFGQGTKLEIKGGGGSGIPPKIECLPIDISIDEGKCLTVASAFTGEPTPEVTWSTGGRKIHSQEQGRFHIENTDDSTTLTIKDVQKQDGGLYTLTLRNEFGSDSATVNIHIRSI chain 3: not shown chain 4: not shown						0.8 nM	5.3 nM
PL-3 (bispecific antibody) chain 1: not shown chain 2: DIVLTQSPASLAVSPGQRATITCRASESVSIHGTHLMHWYQQKPGQPPKLLIYAASKLESGVPARFSGSGSGTDFTLTINPVEAEDTANYYCQQSFEDPLTFGQGTKLEIKGGGGSGIPPKIECLPIDISIDEGKCLTVASAFTGEPTPEVTWSTGGRKIHSQEQGRFHIENTDDSTTLTIKDVQKQDGGLYTLTLRNEFGSDSATVNIHIRSI chain 3: not shown chain 4: not shown						0.6 nM	7.9 nM
PL-9 (bispecific antibody) chain 1: not shown chain 2: DIVLTQSPASLAVSPGQRATITCRASESVSIHGTHLMHWYQQKPGQPPKLLIYAASKLESGVPARFSGSGSGTDFTLTINPVEAEDTANYYCQQSFEDPLTFGQGTKLEIKGGGGSGIPPKIECLPIDISIDEGKCLTVASAFTGEPTPEVTWSTGGRKIHSQEQGRFHIENTDDSTTLTIKDVQKQDGGLYTLTLRNEFGSDSATVNIHIRSI chain 3: not shown chain 4: not shown						0.6 nM	5.5 nM
PL-8 (bispecific antibody) chain 1: not shown chain 2: DIVLTQSPASLAVSPGQRATITCRASESVSIHGTHLMHWYQQKPGQPPKLLIYAASKLESGVPARFSGSGSGTDFTLTINPVEAEDTANYYCQQSFEDPLTFGQGTKLEIKGGGGSGIPPKIECLPIDISIDEGKVLTVASAFTGEPTPEVTWSTGGRKIHSQEQGRFHIENTDDSTTLTIKDVQKQDGGLYTLTLRNEFGSDSATVNIHIRSI chain 3: not shown chain 4: not shown						1.4 nM	14.5 nM
PL-5 (bispecific antibody) chain 1: not shown chain 2: DIVLTQSPASLAVSPGQRATITCRASESVSIHGTHLMHWYQQKPGQPPKLLIYAASKLESGVPARFSGSGSGTDFTLTINPVEAEDTANYYCQQSFEDPLTFGQGTKLEIKGGGGSGIPPKIECLPIDISIDEGKVLTVASAFTGEPTPEVTWSTGGRKIHSQEQGRFHIENTDDSTTLTIKDVQKQDGGLYTLTLRNEFGSDSATVNIHIRSI chain 3: not shown chain 4: not shown						0.7 nM	6.7 nM
PL-4 (bispecific antibody) chain 1: not shown chain 2: DIVLTQSPASLAVSPGQRATITCRASESVSIHGTHLMHWYQQKPGQPPKLLIYAASKLESGVPARFSGSGSGTDFTLTINPVEAEDTANYYCQQSFEDPLTFGQGTKLEIKGGGGSGIPPKIECLPIDISIDEGKVLTVASCFTGEPTPEVTWSTGGRKIHSQEQGRFHIENTDDSTTLTIKDVQKQDGGLYTLTLRNEFGSDSATVNIHIRSI chain 3: not shown chain 4: not shown						0.7 nM	6.5 nM
PL-10 (bispecific antibody) chain 1: not shown chain 2: DIVLTQSPASLAVSPGQRATITCRASESVSIHGTHLMHWYQQKPGQPPKLLIYAASKLESGVPARFSGSGSGTDFTLTINPVEAEDTANYYCQQSFEDPLTFGQGTKLEIKGGGGSGIPPKIECLPIDISIDEGKVLTVASCFTGEPTPEVTWSTGGRKIHSQEQGRFHIENTDDSTTLTIKDVQKQDGGLYTLTLRNEFGSDSATVNIHIRSI chain 3: not shown chain 4: not shown						0.6 nM	6.9 nM
PL-2 (bispecific antibody) chain 1: not shown chain 2: DIVLTQSPASLAVSPGQRATITCRASESVSIHGTHLMHWYQQKPGQPPKLLIYAASKLESGVPARFSGSGSGTDFTLTINPVEAEDTANYYCQQSFEDPLTFGQGTKLEIKGGGGSGIPPKIECLPIDISIDEGKVLTVASAFTGEPTPEVTWSTGGRKIHSQEQGRFHIENTDDSTTLTIKDVQKQDGGLYTLTLRNEFGSDSATVNIHIRSI chain 3: not shown chain 4: not shown						0.5 nM	8 nM
PL-7 (bispecific antibody) chain 1: not shown chain 2: DIVLTQSPASLAVSPGQRATITCRASESVSIHGTHLMHWYQQKPGQPPKLLIYAASKLESGVPARFSGSGSGTDFTLTINPVEAEDTANYYCQQSFEDPLTFGQGTKLEIKGGGGSGIPPKIECLPIDISIDEGKVLTVASCFTGEPTPEVTWSTGGRKIHSQEQGRFHIENTDDSTTLTIKDVQKQDGGLYTLTLRNEFGSDSATVNIHIRSI chain 3: not shown chain 4: not shown						0.5 nM	7.3 nM
